Experiments:
[1] = Enzyme activity for a poly-N-acetyllactosamine sugar chain, Namalwa cell extract, HPLC; type: biochemical
Excerpt: Using a poly-N-acetyllactosamine sugar chain, it was examined that to which GlcNAc in the sugar chains, human Fuc-TIX and 5 types of human α1,3-fucosyltransferase (Fuc-TIII, Fuc-TIV, Fuc-TV, Fuc-TVI, and Fuc-TVII) that had been cloned so far transferred fucose.
Control plasmid (pAMo) and the human Fuc-TIX expression plasmid pAMo-FT9 were introduced into Namalwa cells according to the method shown in Example 1 (3), thereby obtaining stable transformants.
Namalwa cells expressing each of the other 5 types of human α1,3-fucosyltransferases (Fuc-TIII, Fuc-TIV, Fuc-TV, Fuc-TVI, and Fuc-TVII) were obtained according to the previous report (Glycoconjugate J., 13, 802-812, Biochem. Biophys. Res. Commun., 237, 131-137, 1997).
The resultant transformants (about 1×10^7) were collected in microtubes (1.5 ml, manufactured by Eppendolf), followed by centrifugation at 550×g for 7 minutes to collect the cells.
The collected cells were washed with 0.9 ml of PBS. The washed cells were suspended in 100 μl of a solution which consisted of 20 mM HEPES (pH 7.2) and 1% TrironX-100, then allowed to stand at 4° C. for 10 minutes. Subsequently the cells were disrupted using a ultrasonicator (Bioruptor; manufactured by COSMO BIO CO., LTD.)
After disruption of the cells, each supernatant was obtained by centrifugation at 550×g for 7 minutes and used as an enzyme sample. A poly-N-acetyllactosamine sugar chain (Galβ1-4GlcNAcβ1-3Galβ1-4GlcNAcβ1-3Galβ1-4GlcNAc) consisting of 6 sugars was fluorescently labeled with 2-aminobenzamide to make a sugar chain (Galβ1-4GlcNAcβ1-3Galβ1-4GlcNAcβ1-3Galβ1-4GlcNAc-2AB: abbreviated as S in FIGS. 13 and 15, and table 3), which was used as a substrate
Florescent labeling was performed using a Signal™ 2-AB glycan labeling kit (manufactured by Oxford GlycoScience). A poly-N-acetyllactosamine sugar chain (Galβ1-4GlcNAcβ1-3Galβ1-4GlcNAcβ1-3Galβ1-4GlcNAc) was prepared according to WO98/03524.
(§1) Samples were allowed to react in 20 μl of an assay solution [50 mM cacodylate (pH 6.8), 5 mM ATP, 10 mM L-fucose, 75 μM […] (manufactured by SIGMA), 25 mM MnCl2, 15 μM fluorescently labeled sugar chain substrate, 6 μl of the cell lysate above] at 37° C. for 2 hours, followed by treatment at 100° C. for 3 minutes to stop the reaction. Next 200 μl of water was added to the samples, and the supernatant was obtained by centrifugation at 10,000×g for 5 minutes. Using an aliquot of the supernatant (10 μl), products were analyzed by HPLC under the following conditions.
(§2) HPLC: • Column—TSK-gel ODS-80TsQA column (4.6×250 mm; TOSOH CORPORATION) • Eluate—0.02 M ammonium acetate (pH 4.0) containing 7% methanol • Elution temperature—50° C. • Flow rate—1.0 ml/min. • Detection—Fluorescence spectrum photometer FB-920 (manufactured by JASCO Corporation) (excitation wavelength: 330 nm, radiation wavelength: 420 nm)

Namalwa cells [2] = experiment: Indirect fluorescent antibody staining (FACS) of transformed Namalwa cells; type: cell-based, human; details: FIG. 1
Method: The plasmids were dissolved in 10 μl of TE buffer. Then each of the plasmids was introduced into Namalwa cells by electroporation method [Cytotechnology, 3, 133 (1990)].
After introducing […] of the plasmids prepared as described above or 4 μg of pAMo (control plasmid) per 1.0×10^6 to 1.6×10^6 cells (200 μl) by electroporation method, the cells were suspended in 8 ml of RPMI1640 media and then cultured in a CO2 incubator for 24 hours at 37° C.
After culturing, the medium was supplemented with G418 (manufactured by GIBCO BRL) to 0.5 mg/ml followed by culturing for another 10 to 14 days, thereby obtaining transformed cells.
Indirect fluorescent antibody staining using the anti-Lewis x sugar chain antibody (PM-81) was performed as follows.
About 1×10^6 transformed cells were added to a microtube (1.5 ml: manufactured by Eppendolf) and then the cells were collected by centrifugation (550×g, 7 minutes).
The cells were washed with 0.9 ml of A-PBS, suspended by adding 20 μl of the anti-Lewis x sugar chain antibody (PM-81) that had been diluted with A-PBS to about 10 μg/ml, and then allowed to react for 1 hour at 4° C. […]
After the reaction, the cells were washed once with 0.9 ml of A-PBS, and then suspended in 0.6 ml of A-PBS, followed by the analysis using a fluorescence activated cell sorter. […]

[3] = Enzyme activity for monofucosylpoly-N-acetyllactosamine sugar chain P1, Namalwa cell extract, HPLC; type: biochemical; details: relative activity with the activity for P1 assumed to be 1
Method: as §1, §2
The enzymatic activities of Fuc-TIV, Fuc-TVI and Fuc-TIX were measured using the product P1 or P2 as a substrate in addition to the above substrate (S).

Namalwa cells [4] = experiment: Indirect fluorescent antibody staining of Namalwa cells expressing human Fuc-TIV or Fuc-TIX (VIM-2 and Le^x sugar chains); type: cell-based
Method: Using an anti-VIM-2 sugar chain antibody (anti-CDw65 antibody, manufactured by Serotec) and anti-Le^x sugar chain antibodies [73-30 (manufactured by […] CORPORATION) and anti-CD15 antibody (C3D-1, manufactured by Dako)], indirect fluorescent antibody staining was performed for Namalwa cells expressing human Fuc-TIV or human Fuc-TIX, and for Namalwa cells transfected with the control vector pAMo, which were constructed in Example 9. The VIM-2 sugar chain is a sugar chain having the structure consisting of Galβ1-4GlcNAcβ1-3Galβ1-4(Fucα1-3)GlcNAc on non-reduced terminal of a sugar chain.
Indirect fluorescent antibody staining was performed according to the method described in Example 1 (3). Anti-VIM-2 sugar chain antibodies, 73-30 and C3D-1 were used after dilution at 1:50, 1:100, and 1:50.

[5] = relative activity with the activity for P1 assumed to be 1
[6] = substrate S, relative value, total of products P1, P2 and P3 by each enzyme = 100%

B1: Fuc-TIX: human Fuc-TIX, 359 amino acids (SEQ ID NO:2), α1,3-fucosyltransferase expressed from pAMo-FT9 in Namalwa cells (protein)
chain: MTSTSKGILRPFLIVCIILGCFMACLLIYIKPTNSWIFSPMESASSVLKMKNFFSTKTDYFNETTILVWVWPFGQTFDLTSCQAMFNIQGCHLTTDRSLYNKSHAVLIHHRDISWDLTNLPQQARPPFQKWIWMNLESPTHTPQKSGIEHLFNLTLTYRRDSDIQVPYGFLTVSTNPFVFEVPSKEKLVCWVVSNWNPEHARVKYYNELSKSIEIHTYGQAFGEYVNDKNLIPTISACKFYLSFENSIHKDYITEKLYNAFLAGSVPVVLGPSRENYENYIPADSFIHVEDYNSPSELAKYLKEVDKNNKLYLSYFNWRKDFTVNLPRFWESHACLACDHVKRHQEYKSVGNLEKWFWN
modifications: human
What does the source list for B1?
Enzymatic activity, substrate S, product P1 [1, 5]: 7.2; Enzymatic activity, substrate S, product P2 [1, 5]: 1.6; Enzymatic activity, substrate S, product P3 [1, 5]: 0.7; Production (%) P1 [1, 6]: 82.7%; Production (%) P2 [1, 6]: 13.4%; Production (%) P3 [1, 6]: 3.9%; synthesis of the Lewis x sugar chain in transformed cells (Namalwa cells [2]): can synthesize; synthesis of the Lewis y sugar chain in transformed cells (Namalwa cells [2]): can synthesize; Enzymatic activity, substrate P1, product P3 [3]: 1.0; reactivity against the anti-Le^x sugar chain antibodies [73-30 and anti-CD15 antibody] (Namalwa cells [4]; Namalwa cells expressing Fuc-TIX compared with those expressing Fuc-TIV): greater; reactivity against the anti-VIM-2 sugar chain antibody (Namalwa cells [4]; compared to Namalwa cells transfected with pAMo): slight increase

From patent publication US20080015165A1, “NOVEL POLYPEPTIDE” (KYOWA HAKKO KOGYO CO., LTD., priority 1998, published 2008)
